Measured values published in US12458818B2, “Anti-trophoblast cell surface antigen 2 (TROP2) antibodies and antibody drug conjugates comprising same” (CSPC MEGALITH BIOPHARMACEUTICAL CO., LTD., priority 2019, dated 2025).
Where “and” joins values, the source holds several entries; their conditions need not be identical. Equal values may be shown once.

Tests used:
[1] = Body weight and tolerability in xenografted nude mice (Example 4); type: in vivo, mouse
Method: (§1) Each mouse was inoculated with 5×10^6 MDA-MB-468 tumor cells (in 0.1 mL, 1:1 with Matrigel) at the right flank by subcutaneous administration under sterile conditions. When the tumors reached a volume of ˜150 mm^3, mice were randomized into one of 7 treatment groups (6 mice per group), as outlined in Table 12, and treatments began. All doses of DP002-HC4LC5-ADC were administered by intravenous injection via tail vein injection.
(§2) Tumor size and animal body weight were measured twice per week. Clinical signs were recorded daily. Tumors were measured using a caliper in two dimensions (i.e., length (a) and width (b)), and tumor volumes were estimated from measurements of the two diameters of the individual tumors as follows: Tumor Volume (mm^3)=(a×b^2)/2.
(§3) Average tumor growth curves for each treatment group were plotted with the observation time on the X-axis, and corresponding tumor volume (geometric mean) on the Y-axis. A two-tailed t-test was used to analyze the statistical significance of any differences between the treatment groups and the control group. Tumor Growth Inhibition (TGI) was calculated after each tumor volume measurement according to the formula: % TGI=(TVcn−TVtn)/TVcn×100, where TVtn and TVcn are the mean tumor Volume of treated and control groups, respectively. Body weight change (CBW %) was calculated after each body weight measurement according to the formula: CBW %=(BWn−BW0)/BW0×100, where BWn is the body weight at day n and BW0 is the body weight at day 0 respectively.

[2] = tested on: xenografted MDA-MB-468 human breast adenocarcinoma tumors; experiment: MDA-MB-468 xenograft efficacy in female nude mice (Example 4); type: in vivo, mouse
Method: The anti-tumor activity of DP002-HC4LC5-ADC was evaluated as a single agent in female nude mice bearing xenografted MDA-MB-468 human breast adenocarcinoma tumors.
as §1, §2, §3

[3] = 2 mg/kg IV Day 0 + 1 mg/kg IV Days 7, 14
[4] = 1 mg/kg IV Days 0, 7, 14, 21, n = 6
[5] = 1 mg/kg IV once on Day 0, n = 6 unless specified

B1: DP002-HC4LC5-ADC: anti-TROP2-MMAE antibody drug conjugate (DAR ~1.6-2.3) of antibody with HC4 and LC5 (SEQ ID NO: 62) (conjugate)
VH: EVQLVQSGAEVKKPGESLKISCKGSGYTFTDYSINWVRQMPGKGLEWMGVISTYYGDASYNQKFKGQVTISADKSISTAYLQWSSLKASDTAMYYCARYGDGYNQFDYWGQGTLVTVSS
light: DIQMTQSPSSLSASVGDRVTITCRVSESVDSYGNNFMHWYQQKPGKAPKLLIYRASNLESGVPSRFSGSGSGTDFTFTISSLQPEDIATYYCQQSYEDPYTFGGGTKLEIKRTVAAPSVFIFPPSDEQLKSGTASVVCLLNNFYPREAKVQWKVDNALQSGNSQESVTEQDSKDSTYSLSSTLTLSKADYEKHKVYACEVTHQGLSSPVTKSFNRGEC
modifications: MMAE conjugate
[1]; 1 mg/kg IV Days 0, 7, 14, 21
  BWC (%) Day 70 (body weight change vs Day 0): 8.95%
  Body Weight (g, Mean ± SEM) Day 70: 21.70 ± 0.30 g
  Body Weight (g, Mean ± SEM) Day 84: 21.24 ± 0.26 g
  Drug-related Death: 0
  average body weight increase (%) on Day 84 compared to Day 0: 6.66%
  average body weight increase on Day 70 compared to Day 0: 1.76 g
  average body weight increase on Day 84 compared to Day 0: 1.30 g
[1]; 1 mg/kg IV once on Day 0
  BWC (%) Day 70 (body weight change vs Day 0): 15.09%
  Body Weight (g, Mean ± SEM) Day 70: 22.01 ± 0.50 g
  Body Weight (g, Mean ± SEM) Day 84: 22.06 ± 0.64 g
  Drug-related Death: 0
  average body weight increase (%) on Day 84 compared to Day 0: 12.37%
  average body weight increase on Day 70 compared to Day 0: 2.87 g
  average body weight increase on Day 84 compared to Day 0: 2.92 g
[1]; [3]
  BWC (%) Day 70 (body weight change vs Day 0): 8.89%
  Body Weight (g, Mean ± SEM) Day 70: 21.18 ± 0.49 g
  Body Weight (g, Mean ± SEM) Day 84: 21.31 ± 0.46 g
  Drug-related Death: 0
  average body weight increase (%) on Day 84 compared to Day 0: 10.24%
  average body weight increase on Day 70 compared to Day 0: 1.72 g
  average body weight increase on Day 84 compared to Day 0: 1.85 g
[1]; 2 mg/kg IV once on Day 0
  BWC (%) Day 70 (body weight change vs Day 0): 11.00%
  Body Weight (g, Mean ± SEM) Day 70: 21.63 ± 0.39 g
  Body Weight (g, Mean ± SEM) Day 84: 21.75 ± 0.55 g
  Drug-related Death: 0
  average body weight increase (%) on Day 84 compared to Day 0: 10.84%
  average body weight increase on Day 70 compared to Day 0: 2.14 g
  average body weight increase on Day 84 compared to Day 0: 2.26 g
[1]; 4 mg/kg IV once on Day 0
  BWC (%) Day 70 (body weight change vs Day 0): 10.87%
  Body Weight (g, Mean ± SEM) Day 70: 21.72 ± 0.44 g
  Body Weight (g, Mean ± SEM) Day 84: 20.96 ± 0.55 g
  Drug-related Death: 0
  average body weight increase (%) on Day 84 compared to Day 0: 6.99%
  average body weight increase on Day 70 compared to Day 0: 2.13 g
  average body weight increase on Day 84 compared to Day 0: 1.37 g
[1]; maximum cumulative dose of 4 mg/kg IV (single or split doses)
  tolerability in mice: well tolerated
[2]; 1 mg/kg IV Days 0, 7, 14, 21
  % TGI Day 70: 85.88%
  % of mice with tumor regression at the end of the study: 30%
  Tumor Volume (mm^3, Mean ± SEM) Day 70: 191.51 mm^3 and 192.51 ± 91.38*** mm^3
  Tumor Weight (g, Mean ± SEM) Day 84: 0.421 ± 0.218 g
[2]; [4]
  Number of mice demonstrating full tumor regression at Week 4 following first dose: 1
  Number of mice demonstrating full tumor regression at Week 5 following first dose: 1
  Number of mice demonstrating full tumor regression at Week 6 following first dose: 1
  Number of mice demonstrating full tumor regression at Week 7 following first dose: 2
  Number of mice demonstrating full tumor regression at Week 8 following first dose: 2
  Number of mice demonstrating full tumor regression at Week 9 following first dose: 2
  Number of mice demonstrating full tumor regression at Week 10 following first dose: 2
  Number of mice demonstrating full tumor regression at Week 11 following first dose: 2/6 and 2
  Number of mice demonstrating full tumor regression at Week 12 following first dose: 2
[2]; 1 mg/kg IV once on Day 0
  % TGI Day 70: 62.16%
  Tumor Volume (mm^3, Mean ± SEM) Day 70: 515.77 mm^3 and 515.77 ± 127.38*** mm^3
  Tumor Weight (g, Mean ± SEM) Day 84: 0.658 ± 0.165 g
[2]; 1 mg/kg IV once on Day 0, animals euthanized Day 77
  Tumor Weight (g, Mean ± SEM) Day 77: 0.972 ± 0.165 g
[2]; [5]
  Number of mice demonstrating full tumor regression at Week 4 following first dose: 0
  Number of mice demonstrating full tumor regression at Week 5 following first dose: 0
  Number of mice demonstrating full tumor regression at Week 6 following first dose: 0
